Substrate: CCn1c(=NN=c2sc3cc(S(=O)(=O)O)ccc3n2CC)sc2cc(S(=O)(=O)O)ccc21
Experiment: purified protein
Assay type: biochemical, Klebsiella pneumoniae
Conditions: 40 μM H2O2, 100 nM enzyme, 50 mM phosphate-citrate pH 5.0, room temperature

B1: KpDyP (B-type Klebsiella pneumoniae dye-decolorizing peroxidase) (Klebsiella pneumoniae) (protein)
chain: MSQVQSGILPEHCRAAIWIEANLKGDVNALREASKIFVDNVATFQAKFPDAKLGAVVAFGNNVWRQLSGGEGADELKDFPVYGKGLAPSTQYDLLIHILSARHEVNFSVAQAALAAFGDAIDVKEEIHGFRWVEERDLSGFVDGTENPAGEETRREVAVIKDGVDAGGSYVFVQRWEHNLKQLNRMSVPDQEMMIGRTKDANEEIDGDERPVTSHLSRVDLKEDGKGLKIVRQSLPYGTASGTHGLYFCAYCARLYNIEQQLLSMFGDTDGKRDAMLRFTKPVTGGYYFAPSLERIQAL
notes: recombinant from E. coli BL21 (DE3) Tuner; dimer
For B1, the Km was 20.5 ± 1.9 µM, the kcat was 3.1 ± 0.1 s⁻¹ and the kcat/Km was 150000 M⁻¹ s⁻¹.
